T1: monkey TSLP-His (cynomolgus monkey, Macaca fascicularis) (cynomolgus monkey (Macaca fascicularis), UniProt A0A7N9CAT7 29-159)
T1 construct: Whole entry XP_005557555.1 is named; also called cTSLP
T1 sequence: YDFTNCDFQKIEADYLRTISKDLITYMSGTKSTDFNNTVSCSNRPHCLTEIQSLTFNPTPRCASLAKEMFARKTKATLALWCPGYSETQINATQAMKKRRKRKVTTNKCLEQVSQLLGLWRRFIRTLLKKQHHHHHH

B1: chimeric antibody 90H3H11 (antibody, V domains shown)
VH: QVQLVESGGGVVQPGRSLRLSCAASGFTISNHDIHWVRQAPGKGLEWVTLIWYDGSNQYYADSVKGRFTISRDNSKNTVYLQMNSLRAEDTAVYYCARDDYADYVYFHHWGQGTLVTVSS
VL: DIQMTQSPSSLSASVGDRVTITCRASQNINSYLNWYRQKPGKAPELLIYAASSLQSGVPSRFSGSGSGTDFTLTISSLQPEDFATYYCQQSYSTPYTFGQGTELEIK
notes: Fully human variable regions with rat constant region (rat Fc)
B2: chimeric antibody 25A5C5 (antibody, V domains shown)
VH: EVQLVESGGGLVQPGGSLRLSCAASRFTFSRYWMNWVRQAPGKGLEWVANIKQDGNEKYYVDSVKGRFTISRDNAKNSLYLQMNSLRAEDTAVYYCARDRVVGAPDTFDIWGQGTMVTVSS
VL: not shown
notes: From hybridoma of H2L2 mice: fully human variable regions with rat constant region (rat Fc)
B3: chimeric antibody 27C2B6 (antibody, V domains shown)
VH: QVQLQESGPGLVKPSGTLSLTCAVSGDSISNYNWWSWVRQPPGKGLEWIGEIYHSGRTNYNPSLKSRVTLSVDTSKNQFSLRLSSVTAADTAVYYCARDAPSDYGDYGFFDHWGQGTLVIVSS
VL: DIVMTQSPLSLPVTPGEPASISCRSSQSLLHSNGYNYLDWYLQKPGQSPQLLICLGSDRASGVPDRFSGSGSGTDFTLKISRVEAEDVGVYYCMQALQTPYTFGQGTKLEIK
notes: as for B1
B4: chimeric antibody 37C2D10 (antibody, V domains shown)
VH: QVQLQESGPGLVKPSGTLSLTCAVSGDSISSDNWWNWVRQPPGKGLQWIGEIFHSGRTNYNPSLKSRVTISVDMSKNQFSLKLSSVTAADTAVYFCARDAPNDYGDYGFFDYWGQGILVTVSS
VL: DIVMTQSPLSLPVTPGEPASISCRSSQSLLHSNEYNYLDWYLQKPGQSPQLLIYLGSDRASGVPDRFSGSGSGTDFTLKISRVEAEDVGIYYCMQALQTPYTFGQGTKLEIK
notes: as for B1
B5: chimeric antibody 43B1A8 (antibody, V domains shown)
VH: QMQLVESGGGAVQPGRSLRLSCAASGFTFRSYDMHWVRQAPGKGLEWVAVIWYDGSNENYADSVKGRFTTSRDNSKNTLFLQMNSLRAEDTAVYYCARSPLWYGEPDDAFDIWGQGTLVTVSS
VL: EIVMTQSPATLSVSPGERATLSCRASQSVSSNLAWYQQKPGQAPRLLISGASTRATGIPARFSGSGSGTDFTLTISSLRSEDFAVYYCQHYNNWPLTFGGGTKVEIK
notes: as for B1
B6: recombinant fully human antibody 90H3H11-hIgG (antibody, V domains shown)
VH: B1 VH
VL: DIQMTQSPSSLSASVGDRVTITCRASQNINSYLNWYRQKPGKAPELLIYAASSLQSGVPSRFSGSGSGTDFTLTISSLQPEDFATYYCQQSYSTPYTFGQGTELEIKR
B7: recombinant fully human antibody 25A5C5-hIgG (antibody, V domains shown)
VH: B2 VH
VL: not shown
B8: recombinant fully human antibody 27C2B6-hIgG (antibody, V domains shown)
VH: B3 VH
VL: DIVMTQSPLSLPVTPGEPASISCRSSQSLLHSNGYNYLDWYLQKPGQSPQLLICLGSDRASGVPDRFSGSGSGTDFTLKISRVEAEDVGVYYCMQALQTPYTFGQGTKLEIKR
B9: recombinant fully human antibody 37C2D10-hIgG (antibody, V domains shown)
VH: B4 VH
VL: DIVMTQSPLSLPVTPGEPASISCRSSQSLLHSNEYNYLDWYLQKPGQSPQLLIYLGSDRASGVPDRFSGSGSGTDFTLKISRVEAEDVGIYYCMQALQTPYTFGQGTKLEIKR

Target: T2, human TSLP-His (human, UniProt Q969D9 29-159)
Assay: cell-based or functional assay

| EC50, blocking human TSLP-induced proliferation of Ba/F3-hTSLPR-hIL7Rα cells (CCK8) [nM] | Binder |
| --- | --- |
| 0.25 | B1 |
| 0.11 | B2 |
| 1.22 | B3 |
| 0.28 | B4 |
| 0.1 | B5 |

Target: T2, human TSLP-His
Assay: cell-based or functional assay
Remark: another data set of the same source

| hTSLP EC50, inhibition of the proliferation of Ba/F3-hTSLPR-hIL7Rα cells [nM] | Binder |
| --- | --- |
| 0.05 | B6 |
| 0.044 | B7 |
| 0.064 | B8 |
| 0.06 | B9 |

Target: T2, human TSLP-His
Assay: cell-based or functional assay
Remark: another data set of the same source

| EC50, inhibition of human TSLP-induced PBMC secretion of TARC [nM] | Binder |
| --- | --- |
| 0.42 | B6 |

Target: T2, human TSLP-His
Assay: ELISA, human TSLP-His coated, antibody titrated, anti-rat Fc-HRP
Procedure: (§1) The specific method was briefed as follows: coating human or monkey TSLP-His antigen into 96-well plates, after overnight at 4° C., adding antibodies diluted with different concentration gradients, respectively, after incubating for 2 hours, adding goat anti-rat Fc-HRP secondary antibody, and after incubating for 1 hour, reading the absorption value at 450 nm wavelength by microplate reader.

| EC50 [nM] | Binder |
| --- | --- |
| 0.139 | B1 |
| 0.208 | B2 |
| 0.221 | B3 |
| 0.3 | B4 |
| 0.115 | B5 |

Target: T1, monkey TSLP-His (cynomolgus monkey, …)
Assay: ELISA, monkey TSLP-His coated, antibody titrated, anti-rat Fc-HRP
Procedure: as §1

| EC50 [nM] | Binder |
| --- | --- |
| 0.216 | B3 |
| 0.495 | B4 |
| 0.568 | B5 |

Target: T2, human TSLP-His
Assay: ELISA, human TSLP-His coated, antibody titrated, anti-human Fc-HRP

| EC50 [nM] | Binder |
| --- | --- |
| 1.36 | B6 |
| 1.45 | B7 |
| 1.62 | B8 |
| 0.9 | B9 |

Target: T1, monkey TSLP-His (cynomolgus monkey, …)
Assay: ELISA, monkey TSLP-His coated, antibody titrated, anti-human Fc-HRP

| binding result | EC50 [nM] | Binder |
| --- | --- | --- |
| no binding | – | B7 |
| – | 0.18 | B8 |
| – | 0.17 | B9 |

Target: T2, human TSLP-His
Assay: BLI (Fortebio), antibody on ProA sensor, human TSLP 1.5625-100 nM, 1:1 model
Source text: (§2) The dynamic affinity of anti-TSLP fully human chimeric antibody for TSLP was detected by Fortebio, a commonly used dynamic affinity detection device. […] Date analysis 11.0 version (Pall) with 1:1 model was used to determine the association rate constant (Ka) and the dissociation rate constant (Kd), which were then used to calculate the dissociation equilibrium constant (KD).

| Kd [nM] | Binder |
| --- | --- |
| 0.604 | B6 |
| 0.558 | B7 |
| 1.76 | B9 |

Target: T1, monkey TSLP-His (cynomolgus monkey, …)
Assay: BLI (Fortebio), antibody on ProA sensor, monkey TSLP 1.5625-100 nM, 1:1 model
Source text: as §2

| Kd [nM] | Binder |
| --- | --- |
| 20.1 | B9 |

Target: T2, human TSLP-His
Assay: ELISA, human TSLP-His coated at 1 µg/mL, hybridoma supernatant, anti-rat IgG-HRP
Procedure: The 96-well plates were washed with PBST and blocked with a blocking solution (PBS+2% BSA) at 37° C. for 2 hours. The hybridomas supernatant, or the same volume of blocking solution were added to plates, and incubated in an incubator at 37° C. for 2 hours. The 96-well plates were added with goat anti-rat IgG-HRP, and incubated in an incubator at 37° C. for 1 hour, then washed and read OD at 450 nm.

| hTSLP binding (OD450) | Binder |
| --- | --- |
| 0.7 | B1 |
| 2.4 | B2 |
| 1.4 | B3 |
| 1.1 | B4 |
| 1.92 | B5 |

Target: T1, monkey TSLP-His (cynomolgus monkey, …)
Assay: ELISA, monkey TSLP-His coated at 1 µg/mL, hybridoma supernatant, anti-rat IgG-HRP
Procedure: The monkey TSLP-His protein was diluted to 1 μg/mL in CBS coating buffer, then added to 96-well plates, and incubated overnight at 4° C. The 96-well plates were washed with PBST and blocked with a blocking solution (PBS+2% BSA) at 37° C. for 2 hours. The hybridomas supernatant, or the same volume of blocking solution were added to plates, and incubated in an incubator at 37° C. for 2 hours. The 96-well plates were added with goat anti-rat IgG-HRP, and incubated in an incubator at 37° C. for 1 hour, then washed and read OD at 450 nm.

| cTSLP binding (OD450) | Binder |
| --- | --- |
| 1.11 | B3 |
| 1.12 | B4 |
| 1.11 | B5 |

Target: T2, human TSLP-His
Assay: competitive ELISA, hIL7Rα-hTSLPR-hFc coated, hTSLP-His plus titrated antibody, anti-His-HRP
Procedure: (§3) The soluble hIL7Rα-hTSLPR-hFc protein was diluted in 1×CBS coating buffer, then added to 96-well plates, and incubated overnight at CC. The 96-well plate was washed with PBST and blocked with a blocking solution (PBS+2% BSA) at 37° C. for 2 hours. […] The 96-well plates were added with mouse anti-His-HRP, and incubated in an incubator at 37° C. for 1 hour, then washed and read OD at 450 nm.
Competitive ELISA was applied to assay the activity of chimeric antibodies of blocking the binding of chimeric receptor hIL7Rα-hTSLPR-hFc to the antigen.

| IC50 [nM] | Binder |
| --- | --- |
| 1.65 | B1 |
| 0.89 | B2 |
| 0.77 | B3 |
| 0.51 | B4 |
| 1.33 | B5 |

Target: T2, human TSLP-His
Assay: competitive ELISA, hIL7Rα-hTSLPR-hFc coated, hTSLP-His plus hybridoma supernatant, anti-His-HRP
Procedure: as §3

| hTSLP/hIL7Rα-hTSLPR-hFc inhibition rate (%) | Binder |
| --- | --- |
| 87 | B1 |
| 95.9 | B2 |
| 69.8 | B3 |
| 81 | B4 |
| 80.7 | B5 |

Source: patent publication US20220363781A1 (SICHUAN KELUN BIOTECH BIOPHARMACEUTICAL, published 2022)
